We go through 30 sequences from the nanobody polyreactivity screen of Harvey et al. (2022).

The data set is described as follows: yeast display, Sf9 membrane polyspecificity reagent, FACS + sequencing; frameworks hold sequencing errors. The method in brief:
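Nanobodies came from a synthetic yeast display library in Saccharomyces cerevisiae BJ5465, induced with galactose for 36–48 hours and stained for 1 hour at 4 °C with 10% biotinylated, detergent-solubilized Sf9 membrane reagent. Cells were enriched on streptavidin microbeads and then FACS-sorted, with low and high (top ~1%) gates set on anti-HA fluorescence for expression and streptavidin fluorescence for reagent binding. Each polyreactivity label reflects the gate a clone came from. Genes were amplified by colony PCR, sequenced by MiSeq 2 × 250 and filtered by CDR length.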
Take “QVQLVESRGGLVQAGGSLRLSCAASGRTFTLNAMGWYRQAPGKERELVARIDWRGITYADSVKGRFTISRDNAKNTVYLQMNSLKPEDTAVYYCAADYVQGFGFYYQWHYDYWGQGTQVTVSS”: the “polyreactivity (PSR sort gate)” value is reported as “low polyreactivity”.

“QVQLVESRGGLVQAGGSLRLSCAASGSIFYSNFMGWYRPAPGKERELVARITDAGSTNYADSVKGRFTISRDNAKNTVYLQMNSQKPEDTAVYYCNARLVIYTYDYWGQGTQVTVSS”: the “polyreactivity (PSR sort gate)” value is “low polyreactivity”. Next, “QVQLVESRGGLVQAGGSLRLSCAASGSTFSANTMGWNRQAPGKERELVAGITNTGDTYYADSVKGRFTLSRDNAKNTVYLQMNSLKPEDTAVYYCAADSWRLTDGAYWSTVYYWGQGNQVTVSS”: “low polyreactivity”; “QVQLVESRGGLVQAGGSLRLSCAASGSTFYFYDMGLYRQAPGKERELVGAISSSGGDTYYADSVKGRFTISRDNAKNTVYLQMNSLKPEDTAVYYCAAGQLYSGYEYWGQGTQVTVSS”: “low polyreactivity”. Turning to “QVQLVESRGGLVQAGGSLRLSCAAYGFTFPNNAMGWNRQAPGKERELVAAITWSGRSTYADSVKGRFTISRDNAKNTVYLQMNSLKPEDTAVDYCYTRGTYLSKTLPSAYDYWGQGTQVIVSS”, the “polyreactivity (PSR sort gate)” value is on record as “low polyreactivity”. Consider “QVQLVESRGGLVQAGGSLRLSCADSGRIFWYYDMGCYRQAPWKDRELVAAITSGGRTYYADYVKGRFTISRDNAKNTVYLQMNSLKPEDTAVYYCAAEGFYTSGSPYSGGLDYWGQGTQVTVSS”, for which the “polyreactivity (PSR sort gate)” value is “low polyreactivity”. Next, “QVQLVESRGGLVQAGGSLRLSCAPSGSTFHYYAMGWYRQAQGKERELDAAISDRDGGTFYADSVKGRFTISRDNATNTVYLQINSLKPEDTAVYYCYARKRGARFILGYDYWGQGPQVTVSS”: “low polyreactivity”. In the case of “QVQLVESRGGLVQAGGSLRLSFGASGRTFRWYAMVWYRQAPGKERELVAAITYSVGSTYYADSVKGRFTISRDNAKNTVYLQMNSLKPEDSAVYSCAADSYPYRYRGKYSRLDYWGQGTQVTVSS”, the “polyreactivity (PSR sort gate)” value was “low polyreactivity”. Next, “QVQLVESRGGLVQAGGSLRLSSAASGLTLYGYTMGWYRQAPGKERELVATMTSGRDSTYYADSVKGRFTISGDNAKNTFYLEMHCLKPEDTAVYYCGAPYAGWRDGGDYWGQGTQVTVSS”: “low polyreactivity”; “QVQLVESRGGLVQAGGTLRLSCAPSGLTSYGNTRGWDIPAPGKERELVAAISKRGTSTYYADSVKGRFTISRDNAMNTVYLQMNSLKPEDTAVYYCAAAYRGREVEYISWGQGTQVTVSS”: “high polyreactivity”. Next, “QVQLVESRGGVVQAGGSLRLSSDDSGFTFYYYAMGWYRQAPGKERQLVAPITKSGGSTYYADSVKWRFTISRDNSKNSLYVKFNRLKPEDTAVYYCNKVTYSSDQYFGGDGYFWGQGTQVTVTS”: “high polyreactivity”; “QVQLVESRGRLDQAGGSLRLSCAAYARIFAVYAMGWYRQAPGKESEFVATITYNAGSTYYADSVKGRFTISRDNAKNTVNLQMNSLKPEDTAVYYCAVELDSEPAYEPWTEYDYWGQGTQVTVSS”: “low polyreactivity”. Turning to “QVQLVESRGRLVQAGGSLRLSCAASGITFYVYTMGWYRQAPGKERELVAAINGSGGSTNYADSVKGRFTISRDNAKNSVYLHMNSLKTEDTAVYYCAADWSLRLYDYWGQGTQVTVSS”, the “polyreactivity (PSR sort gate)” value is recorded as “low polyreactivity”. Regarding “QVQLVESRGVLVQAGGSLRLSCAASGFTFDYNAMGWYRQAPGKERELVAVISSSGSRTYYADSVKGRFTISRDNAKNTVYLQMNSLKPVDTAVYYCARDNWQWYPSTWYDYWGQGTQVTVSS”, the “polyreactivity (PSR sort gate)” value is recorded as “high polyreactivity”.

For the sequence “QVQLVESRGVLVQAGGSLRLSCAASGLTFGGNAKGWYRQAPGKERELVAAISWSDDTTDYADSVKGRFTISRDNAKNTVYLQMNSLKPEDTAVYYCAARLPFEHVDYWGQGTQVTVSS”, the “polyreactivity (PSR sort gate)” value is recorded as “low polyreactivity”.

Take “QVQLVESRGVLVQAGGSLRLSCAASGSIFEWYAMGWYRQAPGKERELVAVISDGSTNYADSVKGRFTISRDNAKKTVYLQMNSLKPEDPAVSYCAADPFDGYSSSEYDYWGQGTQVTVSS”: the “polyreactivity (PSR sort gate)” value is “low polyreactivity”.

Take “QVQLVESRRGLVQAGGSLRLSCASSGFTVCWYAMGLYRPAPGTERELVAAISSGGSTNYADSVKGRFTISRDNAKNTVYFQMNSLKPEDTAVYYCARRLWYSDRYSARWQYDYWGQGTQVTVSS”: the “polyreactivity (PSR sort gate)” value is reported as “high polyreactivity”.

As to “QVQLVESVGCLVQPGGSLRLSCATSGSIFLLYARGWYRQPPGKERELVAAITSSGGSTNYADSVKGRITISRDTAKNTVYLQMNSLKPEDTEVYYSATAPYAYTILGSRFDYWGKGTQVTVSS”, the “polyreactivity (PSR sort gate)” value is on record as “low polyreactivity”. In the case of “QVQLVESVGGLDQAGGSLRLSCAASGRIFRYYAMGWDRQAPGKERELVAAITSDGRTYYADSVKGRFTISRDNAKNTVYLQMNSLKPEDTAVYYCAADHHSYRYGGYYYWGQGTQVTVSS”, the “polyreactivity (PSR sort gate)” value is given as “low polyreactivity”. Consider “QVQLVESVGGLFHEGGSLRLSSAASGFIFWANAMGCYRQAPGKERELVAAIRNSGGRTYYADSVKGRFTISRDKAKNTVYLQMNSLKPEDTAVYFCATDTGYPYSYDLFDSYYWGQGTQLTVSS”, for which the “polyreactivity (PSR sort gate)” value was “low polyreactivity”.

As to “QVQLVESVGGLFQAGGSLRLSCDASGFTFTAYAMGWYIQAPGKERELVAAINWSGSRTYYADSVKGRFTISRDNAKNTVYLQMNSLKPEDTAVYYCNTATSKSSYRHYDYWGQGTQVTVSS”, the “polyreactivity (PSR sort gate)” value is on record as “high polyreactivity”.

In the case of “QVQLVESVGGLVKAGGRLRLSCAASGRIFPPNALACSRQAPGKERELVADNNFSGDSTYYADSVKGRFTISRDNAKNTVYLQMNSLKPEDTSVYYCAAVISLVSYYYWGQATQVTVSS”, the “polyreactivity (PSR sort gate)” value was “low polyreactivity”.

For the sequence “QVQLVESVGGLVKAGVSLRLSCAASGYIFPYYAMGWYRQAPGKERELVAAISRSGGGTYYADSVKGRFTISRYNAKNTVYFQMKSLKPVVTAVYYFNRRSGQVDVYDYWGQGTKVTVSS”, the “polyreactivity (PSR sort gate)” value is “low polyreactivity”.

In the case of “QVQLVESVGGLVQAGGILRLSSAASGSTFDINEKGWYRQAPGKERELVAAITWSGDSTYYADSVKGRFTISRDNAKNTVYLQMNSLKPVDTAVYYCSAYYPYSYYEDASYYYWGQGTQVTLSS”, the “polyreactivity (PSR sort gate)” value is “low polyreactivity”. Next, “QVQLVESVGGLVQAGGRLRLSCAASGSIFLYNAMGWYRQAPGKERELVAVINGRGGTYYADSVKGRFTISRDNAKNTVYLQMNSLKPEDTAVYYCATGYPPSAGYDSVRFEDRDSWGQGTQVTVSS”: “low polyreactivity”; “QVQLVESVGGLVQAGGRLRLSCAASGSIFSIYGMGWYRQAPGKERELVAVISKSGTRTFYADSVKGRFTISRDNAKNTVYLQMNSLKPEDTAVYYCNARIFFRRNVTQVRMDYWGQGTQVTVSS”: “high polyreactivity”; “QVQLVESVGGLVQAGGRLRLSCAASGSIFWFNAMGWYRQAPGKEREFVASISRSGGTTYYADSVKGRFTISRDNAKNTVYLQMNSLKPEDTAVYYCNARAYGNGLGTGYFGNHRYDYWGQGTQVTVSS”: “low polyreactivity”.

Turning to “QVQLVESVGGLVQAGGRLRLSCAASGSTFAFNAMGWSRQAPGKEREFVAVISYRTDNTYYADSVKGRFTISRDNAKNTVYLQMNSLKPEDTAVYYCAAASSYSKKPYYSYGYWGQGTQVTVSS”, the “polyreactivity (PSR sort gate)” value is “high polyreactivity”.

In the case of “QVQLVESVGGLVQAGGSHRLSGAASGRTLYRYGLGWYRQAPGKDRELVAVIDRGGSTNYADSVKGRFTISRDNAKNTVYLQMNSLKPEDTAVYYCAKRWTAREAWRKGMGYWGQGTKVTVSS”, the “polyreactivity (PSR sort gate)” value is reported as “high polyreactivity”. Next, “QVQLVESVGGLVQAGGSLPLSCAASGSTFVDYDMGWYRQAPGKERELVAAITYSGARTYYADSVKGRFTISRDNAKNTVYLQMNSLTPEDSAVYYGNADQRTASDQLEFDYWGQGTQVTVSS”: “low polyreactivity”.
